What is called IC50 is the point on the concentration scale where inhibition reaches its midpoint.

No end group written: not given here.

For experiment [1], the target named is hemagglutinin of influenza A virus A/Mute swan/Germany/R901/06 K3141 H7N1 (influenza A virus A/Mute swan/Germany/R901/06 K3141 H7N1).
For experiment [2] the target is unchanged. In words: cell-based or functional assay.
Experiment [3] addresses hemagglutinin of influenza A virus A/Panama/2007/1999 H3N2 (influenza A virus A/Panama/2007/1999 H3N2). In words: cell-based or functional assay.

B1: reference peptide with SEQ ID NO:1 (FYDYDVFY), N-terminal (Lys)4, C-terminal amide (peptide)
peptide: KKKKFYDYDVFY
modifications: not fully specified (C-terminus)
Molecule B1 had an IC50 in experiment [1] of 40 µM. In experiment [2], this molecule had a Hemagglutination inhibition (IC50, HAI) of 47 µM and a Mean Ki(HAI), hemagglutination inhibition assay, turkey erythrocytes of 62.5 µM. In experiment [3], the Mean Ki(HAI), hemagglutination inhibition assay, human erythrocytes is 16 µM.

B2: peptide with SEQ ID NO:28, N-terminal (Lys)4, C-terminal amide (peptide)
peptide: KKKKFYGYDVFF
modifications: not fully specified (C-terminus)
Molecule B2 registered a half-maximal inhibitory concentration (IC50) in experiment [1] of 30 µM. Also, in experiment [2], the Hemagglutination inhibition (IC50, HAI) came out at 23 µM and the Mean Ki(HAI), hemagglutination inhibition assay, turkey erythrocytes stood at 36.5 µM. In experiment [3], this molecule came in with a Mean Ki(HAI), hemagglutination inhibition assay, human erythrocytes of 0.1 µM.

The record behind these values is patent US20180072770A1, “Influenza Virus Binding Peptides” (priority 2014, published 2018).
